Entries after “also recorded” stand apart in the source; their conditions may differ.
Assays:
MARC-145 cells = settings: no virus; FIG. 10c
type 2 PRRSV = settings: after MTT screening of 10 candidates
Description: Using various tetrazolium (MTT) colorimetric assay procedures^[xxxvi], these aptamers have been “screened” to identify the ones having the highest and fastest binding capabilities for detection and therapeutics purposes for both types of PRRSV. It should be pointed out that the aptamer having the quickest binding efficiency but not necessarily the highest binding strength is the most suitable one for the biosensor.

[1] = tested on: type 2 PRRSV (VR2332, LHVA-93-3, NVSL-93-2335); assay: Strain-specific neutralization (FIG. 11), type 2 strains; format: cell-based
[2] = tested on: M-S-S-GP5 peptidic complex; assay: ELISA reverse screening: binding to M-S-S-GP5 peptidic complex, type 2; settings: type 2 PRRSV complex
Procedure: ssDNA aptamers were denatured at 80° C. for 10 min and then cooled on ice for 10 min. Aptamers (30 nmole) were mixed with 25 μg of M-S-S-GP5 peptidic complex (further described in Example 6 below) in 500 μl selection buffer (50 mM Tris-HCl; pH 7.4, 5 mM KCl, 100 mM NaCl, 1 mM MgCl2 tRNA, 0.2% BSA) at 37° C. for 30 min. Aptamer-peptide complex was purified by adding the 25 μl Ni-NTA superflow and amplified by PCR using primers directed to the common T3 sequences in the aptamer library, and 3′-primer (i.e. -[…]-3′). SELEX was repeated 3 times, following which amplified nucleotides were transformed into E. coli. PCR conditions for SELEX included 5 min 95° C./1 min 95° C./1 min 55° C./1 min 72° C./10 min 72° C. and 100 pmole of each primer.
Selected ssDNA molecules from each individual clone were biotinylated using the B-T3 which is same sequence with 5′ primer (T3 primer), and Klenow fragment (2 unit/ml). To prepare single stranded biotin conjugated CoocSeq5 aptamer for the reverse screening, T3 Primer was Biotin labelled. A 96-well flat bottom ELISA plate was prepared by coating each well with 100 μl of streptavidin (100 μg/ml) diluted in 0.1 M NaHCO3 following by a 37° C. overnight incubation. Following several washings with PBS, wells were blocked with 200 μl of PBS containing 1% BSA for 2 hours at room temperature and subsequent washing three times with PBS-T (10 mM PBS containing 0.05% (v/v) Tween-20). […]
High binding capacity ELISA plates (Immunoplate, Nunc) were coated with 100 μl allantoic fluid containing 500 TCID50 of various PRRS virus strains diluted in phosphate buffered saline (PBS) by incubating at 4° C. overnight. […] Following this incubation period, plates were washed five times in PBS-T and bound antibodies were detected using horseradish peroxidase labelled goat anti-mouse IgG conjugates (HRP). […] Reaction was terminated with 50 μl of 2M H2SO4, plates were read with a multichannel spectrophotometer at 570 nm.

[3] = tested on: type-1 Lelystad PRRS virus; assay: Strain-specific neutralization (FIG. 11), type 1 strain; format: cell-based, PRRSV
Procedure: In Vitro Viral Protection Prior to Viral Infection PAMs or MARC-145 cells were plated on 96 well plates (7×10^4/well) 24 hours prior to the experiment. Each well was washed twice with DPBS prior to treating the cells with various amounts of A505 (12.5 to 2000 pmole) at 37° C. for the indicated time points. Cells were then washed twice with DPBS and infected with 500 TCID50 LHVA-3 (or NVSL or VR-2332 or Lelystad) for 1 hour in enriched HBSS. Following incubation, cells were transferred to growth medium and incubated at 37° C. for 72 hours. Thereafter an MTT assay was implemented as described.

LHVA-3 PRRS virus = assay: MTT assay, in vitro protection of PAMs or MARC-145 cells from LHVA-3 infection; format: cell-based, PRRSV; settings: for protective effect when added after virus incubation: FIG. 9d
Procedure: PAMs or MARC-145 cells were plated in 96 well plates (7×10^4/well) one day prior to the assay. […] Following infection, cells were incubated in growth medium at 37° C. for 72 hours. MTT assay was performed by adding 4 mg/ml MTT (3-[4,5-Dimethylthiazol-2-yl]-2,5-diphenyltetrazolium bromide dissolved in PBS to the cell cultures and incubation at 37° C. for 3 hours. Plates were then centrifuged at 800×g for 10 min. Supernatants were aspirated and the formazan dye was dissolved in 150 μl/well of isopropyl alcohol, and O.D. values were determined with an ELISA reader at 570 nm.
In Vitro Viral Protection Prior to Viral Infection PAMs or MARC-145 cells were plated on 96 well plates (7×10^4/well) 24 hours prior to the experiment. Each well was washed twice with DPBS prior to treating the cells with various amounts of A505 (12.5 to 2000 pmole) at 37° C. for the indicated time points. […] Following incubation, cells were transferred to growth medium and incubated at 37° C. for 72 hours. Thereafter an MTT assay was implemented as described.
In Vitro Viral Protection Following Viral Infection—PAMs or MARC-145 cells were plated on 96 well plates (7×10^4/well) 24 hours prior to viral infection. Viral infection was effected as described above. Infected cells were gently washed with DPBS for 3 times. Cells were then treated with various amounts of A505 (12.5 to 2000 pmole) for 1 hour at 37° C. Following incubation, cells were transferred to growth medium and incubated at 37° C. for 72 hours. Thereafter an MTT assay was implemented as described.

B1: A505: ssDNA aptamer binding type 2 PRRSV M-S-S-GP5 complex (nucleic acid)
DNA: GGGCGACCCTGAAGAGTTTGTAATCTGCGATTTTAAAGTTGAGTCGTCGCGAAACGGTGAAAGCCGTAGGTTGCCC
modifications: DNA, backbone and methylation of C not given here
MARC-145 cells
  morphology of cells treated with aptamer alone: did not affect the morphology of the cells
Type 2 PRRSV
  binding capabilities from biosensing and therapeutic perspectives: highest binding capabilities
[1]
  neutralization of PRRS virus strains: only the type 2 PRRSV have been neutralized
[2]
  binding to the M-S-S-GP5 complex/heterodimer: highly significant differences from the control ssDNA; also recorded: binding capacity to the M-S-S-GP5 complex; also recorded: found to bind the M-S-S-GP5 heterodimer
[3]
  effect on type-1 Lelystad PRRS virus: has not effect
LHVA-3 PRRS virus; 500 pmole for 30 min or 60 min, repeated washing, then virus, FIG. 9c
  survival rate of cells pre-incubated with aptamer then washed before infection: no significant difference between the survival rate of non-treated and treated cells
LHVA-3 PRRS virus; 500 pmole, LHVA-3, compared to non-infected MARC-145 cells, FIG. 9b
  protection against infection of the cells: ~60%
LHVA-3 PRRS virus; 500 TCID50 LHVA-93-3 for 30 min prior to 500 pmole aptamer, vs infected cells
  protective effect when added after virus incubation: highly significant difference
LHVA-3 PRRS virus; 500 TCID50 LHVA-93-3 for 60 min prior to 500 pmole aptamer
  protective effect when added after virus incubation: not significant
LHVA-3 PRRS virus; cells treated with aptamer prior to viral infection, FIG. 9a
  virus-associated cell-death: significant reduction in virus-associated cell-death

Source: patent US11001846B2, “Aptamers, nucleic acid molecules, polynucleotides, synthetic antibodies compositions for detecting PRRS viruses and treating PRRS virus infection” (AEROVIRUS TECHNOLOGIES INC., priority 2015, dated 2021)
